Experimental findings from PMC5800781 are described below.

One data set has as its target BRCA1;BARD1 (human?;human?, UniProt P38398;Q99728 1-1863;1-777, |). Description: EMSA. For orientation: Mobility shift assays separate free from complexed probe on a gel.
The target in a further data set is BARD1 (UniProt Q99728 1-777). The data set can be described thus: Southwestern.
The target of a further data set is BRCA1 (UniProt P38398 1-1863). The data set can be described thus: Southwestern.
Another data set deals with BARD1 124-270 (UniProt Q99728 124-270). The data set can be described thus: EMSA.
Sequence of BARD1 124-270 (Q99728 124-270): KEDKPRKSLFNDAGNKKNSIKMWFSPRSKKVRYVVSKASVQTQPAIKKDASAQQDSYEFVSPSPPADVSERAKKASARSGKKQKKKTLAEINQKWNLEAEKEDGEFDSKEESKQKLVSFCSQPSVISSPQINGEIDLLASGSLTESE
The next data set deals with RAD51;BRCA1;BARD1 (human;human?;human?, UniProt Q06609;P38398;Q99728 1-339;1-1863;1-777, ||). Description: single-molecule DNA curtain.
Another data set deals with RAD51 (human, UniProt Q06609 1-339). The data set can be described thus: single-molecule DNA curtain.
Sequence of RAD51 (Q06609 whole entry): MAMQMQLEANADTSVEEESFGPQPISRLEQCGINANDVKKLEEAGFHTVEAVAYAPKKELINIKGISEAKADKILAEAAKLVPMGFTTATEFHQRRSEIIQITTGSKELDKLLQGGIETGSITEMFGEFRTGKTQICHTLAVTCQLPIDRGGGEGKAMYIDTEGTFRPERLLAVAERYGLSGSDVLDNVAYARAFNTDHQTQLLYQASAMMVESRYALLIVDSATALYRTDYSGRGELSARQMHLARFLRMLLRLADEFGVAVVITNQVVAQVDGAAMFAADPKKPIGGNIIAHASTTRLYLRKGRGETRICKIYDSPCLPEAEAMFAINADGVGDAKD

Sequence of BARD1 (Q99728 whole entry): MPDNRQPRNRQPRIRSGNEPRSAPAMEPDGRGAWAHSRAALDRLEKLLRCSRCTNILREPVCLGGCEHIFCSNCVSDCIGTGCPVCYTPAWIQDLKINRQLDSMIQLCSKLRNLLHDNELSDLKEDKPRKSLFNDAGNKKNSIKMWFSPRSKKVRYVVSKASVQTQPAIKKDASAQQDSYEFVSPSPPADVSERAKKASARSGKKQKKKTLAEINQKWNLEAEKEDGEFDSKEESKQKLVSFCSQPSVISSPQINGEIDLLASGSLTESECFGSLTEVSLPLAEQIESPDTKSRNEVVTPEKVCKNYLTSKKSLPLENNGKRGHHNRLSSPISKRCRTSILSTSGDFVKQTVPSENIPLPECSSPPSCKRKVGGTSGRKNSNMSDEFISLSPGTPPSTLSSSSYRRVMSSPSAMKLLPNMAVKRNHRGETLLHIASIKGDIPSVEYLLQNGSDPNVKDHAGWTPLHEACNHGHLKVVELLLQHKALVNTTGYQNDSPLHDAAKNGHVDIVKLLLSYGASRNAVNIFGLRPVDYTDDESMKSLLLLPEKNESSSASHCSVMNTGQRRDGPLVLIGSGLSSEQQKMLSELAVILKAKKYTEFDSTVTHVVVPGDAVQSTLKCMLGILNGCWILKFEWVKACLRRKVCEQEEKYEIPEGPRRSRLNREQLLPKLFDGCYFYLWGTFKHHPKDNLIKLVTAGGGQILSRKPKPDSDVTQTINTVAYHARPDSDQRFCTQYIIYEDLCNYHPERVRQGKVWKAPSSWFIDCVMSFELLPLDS

B1: replication fork (RF) (mixed)
DNA 1: GACGCTGCCGAATTCTACCAGTGCCTTGCTAGGACATCTTTGCCCACCTGCAGGTTCACCC
DNA 2: GGACATCTTTGCCCACCTGCAGGTTCACCC
DNA 3: TGGGTGAACCTGCAGGTGGGCAAAGATGTCC
DNA 4: GGGTGAACCTGCAGGTGGGCAAAGATGTCCCAGCAAGGCACTGGTAGAATTCGGCAGCGTC
Turning to B1, in the data set with BRCA1;BARD1, the binding result is on record as “binds”.

B2: D-loop (mixed)
DNA 1: CATTGCATATTTAAAACATGTTGGAAGGCTCGATGCATGCTGATAGCCTACTAGTGCTGCTGGCTTTCAAATGACCTCTTATCAAGTGAC
DNA 2: GTCACTTGATAAGAGGTCATTTGAATTCATGGCTTAGAGCTTAATTGCTGAATCTGGTGCTGGGATCCAACATGTTTTAAATATGCAATG
DNA 3: CTGCTACGATGCTAGTCGTAGCTCGGCAGTCGTAGCAGGTTCCCAGCACCAGATTCAGCAATTAAGCTCTAAGCCATGAA
Take B2: the binding result in the data set with BARD1, in the data set with BRCA1, in the data set with BARD1 124-270 and in the data set with BRCA1;BARD1 was “binds” in each case.

B3: DNA bubble (mixed)
DNA 1: CATTGCATATTTAAAACATGTTGGAAGGCTCGATGCATGCTGATAGCCTACTAGTGCTGCTGGCTTTCAAATGACCTCTTATCAAGTGAC
DNA 2: GTCACTTGATAAGAGGTCATTTGAATTCATGGCTTAGAGCTTAATTGCTGAATCTGGTGCTGGGATCCAACATGTTTTAAATATGCAATG
In the case of B3, the binding result in the data set with BARD1 124-270 and in the data set with BRCA1;BARD1 was “binds” in each case.

B4: Atto565 dsDNA 70 bp with 9-nt homology (dsDNA)
DNA 1: CCGGAGGCCTTAGGCCTTAGGCCTTAGGCCTTCAGCTGTTAGCCTTAGCTAGCTAGCTAGCTAGCTAGCT
DNA 2: AGCTAGCTAGCTAGCTAGCTAGCTAAGGCTAACAGCTGAAGGCCTAAGGCCTAAGGCCTAAGGCCTCCGG
Take B4: the binding result with RAD51;BRCA1;BARD1 and in the data set with RAD51 was “binds” each time.
